Measured values from patent US20260327578A1, “TRANSGLUTAMINASES AND USES THEREOF” (CURIE CO. INC., priority 2023, published 2026).

What was measured:
[1] = Thermal stability at 55 °C, specific activity by colorimetric hydroxamate assay; assay type: biochemical
Experimental: Tgase activity was measured herein using a colorimetric hydroxamate activity assay (Folk and Cole (1965) J Biol Chemistry 240 (7): 2951-2960). Briefly, the hydroxamate assay uses N-benzyloxycarbonyl-L-glutaminyl-glycine (ZQG) as a low molecular weight amine acceptor substrate and hydroxylamine as an amine donor. In the presence of catalytically active Tgase, the hydroxylamine is incorporated to form Z-glutamylhydroxamate-glycine, which develops a colored complex with iron (III), detectable at 525 nm after incubation at 37° C. for 5-200 minutes. The calibration was performed using L-glutamic acid gamma-monohydroxamate (Millipore® Sigma®) as a standard. One unit of Tgase was defined as the amount of enzyme that catalyzes formation of 1 μmol of the peptide derivative of gamma-glutamylhydroxylamine per minute. Activity of Tgase variants is depicted in Tables 2-4.
A commercially available wild-type Tgase (Ajinimoto®, Activa® TI formulation) formulated at 0.75-1.0% enzyme in maltodextrin was purchased from Amazon.com and dissolved in water at 20% w/v. The concentration of the mature Tgase in the solution was confirmed by high-performance liquid chromatography (HPLC) and the sample was further diluted to 0.1 g/L of enzyme. Following dilution, the enzyme was subjected to the hydroxamate assay as described in Example 4 to determine specific activity. The specific activity of the commercial wild-type Tgase compared to Tgase variant A3 (SEQ ID NO: 4), further comprising an N-terminal methionine, is shown in FIG. 1.
The thermal stability of Tgase variant A3 (SEQ ID NO: 4) compared to the commercial wild-type Tgase was evaluated by incubating the samples at 55° C. and testing the enzyme concentration and activity at various timepoints. Six timepoints were tested: 0, 30, 60, 120, 240, and 480 minutes.
The enzyme concentration was measured by HPLC. The samples were diluted 10-fold in 50 mM phosphate pH 7.4, 100 mM NaCl. The samples were tested by reverse phase using a Zorbax SB300-C8 column with 0.1% trifluoroacetic acid in water (MPA) and 0.08% trifluoroacetic acid in acetonitrile (MPB).
The activity was determined using the colorimetric activity assay described in Example 4A. The specific activity (U/mg) of the samples was calculated using the concentration of each sample as determined per Example 4D (results shown in Table 10).

[2] = system: collagen; test: Collagen-modifying activity with FITC-gelatin or FITC-cadaverine; assay type: biochemical; conditions: 16 hours, pH 7.4
Experimental: Substrate specificity for collagen of Tgase variant A3 (SEQ ID NO: 4) was tested by allowing the variant to react with either fluorescein-labeled gelatin (FITC-Gelatin, to test protein-protein cross-linking) or fluorescein-labeled cadaverine (FITC-cadaverine, to test protein-small molecule cross-linking) with a collagen layer deposited on the bottom of a 96-well microtiter plate. Tgase variant A3 (SEQ ID NO: 4) and wild-type Tgase were diluted to 4-800 ppm in 50 mM phosphate buffer, pH 7.4, supplemented with 100 mM NaCl in 96-well collagen coated microtiter plates. Either FITC-gelatin or FITC-cadaverine was added to 1 g/L (final volume 100 μL) and the plates were sealed and incubated at either 37° C. or 50° C. for 16 hours. The reaction supernatants were carefully removed and then 200 μL 50 mM [COMPOUND LEFT OUT] mM NaCl, pH 7.4 buffer was added gently against the side of each well then carefully removed. This wash step was repeated. The plate-bound material was extracted by vigorously pipetting 100 μL dimethylsulfoxide into each well, then the extract was transferred into a black bottom 96-well plate. The fluorescence of the samples was measured at an excitation wavelength of 487 nm and an emission wavelength of 528 nm. The fluorescence signal is assumed to be proportionate to the concentration of fluorescent product extracted from the surface of the plate. For both FITC-gelatin and FITC-cadaverine, the fluorescence response per concentration enzyme was higher for wells treated with Tgase variant A3 (SEQ ID NO: 4) than for wells treated with wild-type Tgase (Table 11).

[3] = system: E. coli (ATCC 8739); test: MIC determination against E. coli; assay type: cell-based
Experimental: E. coli (ATCC 8739) and C. albicans (ATCC 10231) were acquired from the American Type Culture Collection (ATCC) (Manassas, VA) and maintained as −80° C. frozen glycerol stocks.
The following day, the cell density of the saturated cultures was calculated using OD600 and cultures were diluted to 104 to 10^6 CFU/mL in sterile Mueller Hinton broth to generate the inoculum, and 100 μL of the inoculum was combined with 100 μL of serially diluted Tgase variant A3 (SEQ ID NO: 4) at a range of 0.0001-0.05 weight percent. Growth curves were measured by OD600 on a BioTek® Synergy Plate Reader. All test conditions were performed in triplicate. MIC was determined to be […] (0.005% w/v) against E. coli for the enzyme described in SEQ ID NO: 4 using OD600.

[4] = system: E. coli; test: Preservative efficacy in body lotion against E. coli; assay type: cell-based; conditions: 0.005% in combinations, phenoxyethanol 0.7% alone, 0.3% combined, caprylyl glycol 0.7% alone, 0.35% combined, sodium benzoate 0.5% + EDTA 0.5%, 2% 2:1 propanediol:hexanediol, 0.5% CHA solution
Experimental: (§1) A vessel was filled with deionized water, placed under an overhead stirrer set to moderate mixing, and heated to 75-80° C. Glycerin was added to 2% and mixed until dissolved, followed by xanthan gum to 0.2%. At 75-80° C., cetearyl glucoside and cetearyl alcohol were added to 4% and 3%. Once both had melted fully, milk thistle seed oil was added and the batch was homogenized with a Silverson homogenizer with the standard emulsion screen until the batch had turned milky white. The batch was removed from heat and returned to propellor mixing with decreased speed to allow the emulsion to set up. At 40° C., pH was adjusted to pH 5.5-6.0 using citric acid or sodium hydroxide and split into several portions and allowed to finish cooling. Once cooled to room temperature, one portion of the body lotion was left unpreserved and the remaining portions were preserved with one or more substances selected from aseptilase, phenoxyethanol, caprylyl glycol, sodium benzoate, and EDTA. All samples were inoculated with E. coli (10^6 CFU/mL) and C. albicans (10^5 CFU/mL) and plated after 2 and 7 days.

[5] = system: C. albicans; test: Preservative efficacy in body lotion against C. albicans; assay type: cell-based; conditions: 0.005% in combinations, phenoxyethanol 0.7% alone, 0.3% combined, caprylyl glycol 0.7% alone, 0.35% combined, sodium benzoate 0.5% + EDTA 0.5%, 2% 2:1 propanediol:hexanediol, 0.5% CHA solution
Experimental: as §1

B1: A3: Tgase variant S2P Q50S Q74A K91H Q124L K151R K152R N282M G283A relative to SEQ ID NO: 2 (protein, UniProt P81453 77-407, looked up, variant S2P Q50S Q74A K91H Q124L K151R K152R N282M G283A)
Protein-glutamine …: DPDDRVTPPAEPLDRMPDPYRPSYGRAETVVNNYIRKWQQVYSHRDGRKSQMTEEQREWLSYGCVGVTWVNSGAYPTNRLAFASFDEDRFHNELKNGRPRSGETRAEFEGRVAKESFDEEKGFLRAREVASVMNRALENAHDESAYLDNLRRELANGNDALRNEDARSPFYSALRNTPSFKERNGGNHDPSRMKAVIYSKHFWSGQDRSSSADKRKYGDPDAFRPAPGTGLVDMSRDRNIPRSPTSPGEGFVNFDYGWFGAQTEADADKTVWTHGNHYHAPMASLGAMHVYESKFRNWSEGYSDFDRGAYVITFIPKSWNTAPDKVKQGWP
Specific activity ([1]; timepoint 0 min): 46.0 U/mg | Specific activity ([1]; timepoint 30 min): 44.4 U/mg | Specific activity ([1]; timepoint 60 min): 43.3 U/mg | Specific activity ([1]; timepoint 120 min): 40.5 U/mg | Specific activity ([1]; timepoint 240 min): 38.9 U/mg | Specific activity ([1]; timepoint 480 min): 32.1 U/mg | portion remaining soluble during the heat treatment ([1]; up to 480 min, compared to wild-type Tgase, HPLC): greater portion | Fluorescence/[Enzyme] ([2]; FITC-Cadaverine, 37 °C): 20.3 RFU/ppm | Fluorescence/[Enzyme] ([2]; FITC-Cadaverine, 50 °C): 182.2 RFU/ppm | Fluorescence/[Enzyme] ([2]; FITC-Gelatin, 37 °C): 8.4 RFU/ppm | Fluorescence/[Enzyme] ([2]; FITC-Gelatin, 50 °C): 36.9 RFU/ppm | MIC ([3]; OD600): 200 ppm | MIC ([3]; OD600, printed in brackets after the ppm value): 0.005 % w/v | Preservative efficacy against E. coli, log reduction ([4]; day 2, aseptilase 0.01% alone): 1.71 log reduction in CFU/mL | Preservative efficacy against E. coli, log reduction ([4]; day 7, aseptilase 0.01% alone): 3.45 log reduction in CFU/mL | Preservative efficacy against C. albicans, log reduction ([5]; day 2, aseptilase 0.01% alone): −1.08 log reduction in CFU/mL | Preservative efficacy against C. albicans, log reduction ([5]; day 7, aseptilase 0.01% alone): −1.19 log reduction in CFU/mL
